According to article PMC8666670, “Malonyl-acyl carrier protein decarboxylase activity promotes fatty acid and cell envelope biosynthesis in Proteobacteria” (The Journal of Biological Chemistry, 2021):

B1: MadA(M17A), malonyl-ACP decarboxylase (yiiD gene product) of E. coli (enzyme, UniProt P0ADQ2 1-329, looked up)
chain: MSQLPGLSRETRESIAAYHLRVPQTEEELERYYQFRWEMLRKPLHQPKGSERDAWDAMAHHQMVVDEQGNLVAVGRLYINADNEASIRFMAVHPDVQDKGLGTLMAMTLESVARQEGVKRVTCSAREDAVEFFAKLGFVNQGEITTPTTTPIRHFLMIKPVATLDDILHRGDWCAQLQQAWYEHIPLSEKMGVRIQQYTGQKFITTMPETGNQNPHHTLFAGSLFSLATLTGWGLIWLMLRERHLGGTIILADAHIRYSKPISGKPHAVADLGALSGDLDRLARGRKARVQMQVEIFGDETPGAVFEGTYIVLPAKPFGPYEEGGNEEE
notes: YiiD (MadA) of E. coli, amplified from Top10 genomic DNA, plasmid pPJ604 with M17A to remove a second start site; Cleavage of the His6 tag is reported only for ACP and MadA^C; MadA^C is said to end at residue 329, so the whole protein probably spans 1-329; also called MadA(M17A) mutant
B2: MadA^C, carboxy-terminal hot dog domain of E. coli MadA (domain or fragment, UniProt P0ADQ2 171-329, looked up)
chain: GDWCAQLQQAWYEHIPLSEKMGVRIQQYTGQKFITTMPETGNQNPHHTLFAGSLFSLATLTGWGLIWLMLRERHLGGTIILADAHIRYSKPISGKPHAVADLGALSGDLDRLARGRKARVQMQVEIFGDETPGAVFEGTYIVLPAKPFGPYEEGGNEEE
notes: MadA (YiiD) of E. coli, amino acids 171 to 329, amplified from Top10 genomic DNA
B3: acetyl-acyl carrier protein (acetyl-ACP) (natural protein, UniProt P0A6A8 1-78, looked up)
chain: MSTIEERVKKIIGEQLGVKQEEVTNNASFVEDLGADSLDTVELVMALEEEFDTEIPDEEAEKITTVQAAIDYINGHQA
modifications: prosthetic group with attached acetyl chain (acetyl thioester), made from apo-ACP and acetyl-CoA with [ACP]synthase
B4: acyl carrier protein (ACP) (natural protein, UniProt P0A6A8 1-78, looked up)
chain: B3 chain
notes: acyl carrier protein; The ACP disulfide dimers seen in the sedimentation analysis imply that at least part of the preparation carries the phosphopantetheine thiol (holo-ACP)

Legend:
[1] = molecular target: the molecule itself; experiment: AUC; sedimentation analysis (methods: sedimentation velocity, 50,000 rpm, interference optics), 0.02 M Tris pH 7.5, 0.5 M NaCl, 20 °C, no reducing agents
[2] = molecular target: the molecule itself; experiment: SEC; gel filtration chromatography of the purified recombinant protein
[3] = molecular target: GlmU, glucosamine-1-phosphate N-acetyl transferase/N-acetyl-glucosamine-1-phosphate uridylyltransferase of E. … (E. coli, UniProt P0ACC7 1-456); experiment: cell-based or functional assay
GlmU, glucosamine-1-phosphate N-acetyl transferase/N-acetyl-glucosamine-1-phosphate uridylyltransferase of E. …, sequence (P0ACC7 whole entry): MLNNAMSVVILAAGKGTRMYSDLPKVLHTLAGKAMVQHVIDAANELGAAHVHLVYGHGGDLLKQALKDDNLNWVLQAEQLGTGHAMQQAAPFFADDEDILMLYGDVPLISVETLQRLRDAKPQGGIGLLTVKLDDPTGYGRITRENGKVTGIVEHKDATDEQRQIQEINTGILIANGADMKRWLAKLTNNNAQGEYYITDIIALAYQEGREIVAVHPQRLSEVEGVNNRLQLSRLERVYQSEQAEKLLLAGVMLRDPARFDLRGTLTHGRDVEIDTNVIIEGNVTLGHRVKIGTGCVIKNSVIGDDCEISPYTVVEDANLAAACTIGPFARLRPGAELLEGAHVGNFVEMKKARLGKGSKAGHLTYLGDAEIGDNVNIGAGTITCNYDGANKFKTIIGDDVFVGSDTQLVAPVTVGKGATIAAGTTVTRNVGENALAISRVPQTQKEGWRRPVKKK

[4] = molecular target: B1; experiment: AUC; sedimentation analysis (methods: sedimentation velocity, 50,000 rpm, interference optics), 0.02 M Tris pH 7.5, 0.5 M NaCl, 20 °C, no reducing agents; settings: both partners purified

Binder: B1
stoichiometry N [1]: 2

Binder: B2
stoichiometry N [2]: 2

Binder: B3
apparent KM of the GlmU acetyltransferase half reaction for [^14C]acetyl-ACP (radiochemical TLC assay, 0–32 μM acetyl-ACP) [3]: 20 µM

Binder: B4
stoichiometry N [4]: 2 ACP per MadA dimer
